# Assays:
# PI3K pathway = assay: CEER-FNA pathway profiling of breast cancer tumor samples exposed to anti-cancer therapy; type: cell-based; details: breast cancer tumor samples exposed to AKT inhibitor and/or Lapatinib; FIG. 17
# Description: The breast cancer tumor samples were exposed to AKT inhibitor and/or Lapatinib (a tyrosine kinase inhibitor). This example illustrates that cancer cells can adapt to therapeutic pressure due to drug therapy. […] FIG. 17 illustrates CEER-FNA analysis of biomarkers in pathway profiling of breast cancer cell samples after treatment with an AKT inhibitor, Lapatinib (a tyrosine kinase inhibitor) or combination therapy.
# [1] = test system: HER2 heterodimers and PI3K; assay: Proximity based dimer/complex assay in MCF7 cells; type: cell-based, human; details: response to ligand, FIG. 20
# Description: FIG. 1A-C show one embodiment of the foregoing proximity assay for detection of dimerization of receptor tyrosine kinases. […] A first detection antibody 115 is then used to bind to a different portion (e.g., epitope) on HER2. A second detection 120 antibody is thereafter used to bind to the dimerized second receptor tyrosine 1kinase e.g., HER3 125. The first detection antibody comprises one or a plurality of first activation state-independent antibodies specific for one member of the dimer, whereas a second detection antibody or a plurality of second detection antibodies is specific for the other member of the dimer. The first detection antibody is labeled with a facilitating moiety e.g., glucose oxidase (GO) and the second detection antibody is labeled with a first member of a signal amplification pair e.g., horseradish peroxidase (HRP). The facilitating moiety generates an oxidizing agent e.g., hydrogen peroxide, which channels to and reacts with the first member of the signal amplification pair. Thereafter, the plurality of detectable captured analytes are incubated with a second member of the signal amplification pair e.g., tyramide or tyramide biotin to generate an amplified signal, which is then detected. […]
# PI3K complex = assay: Proximity (CEER) assay detecting PI3K complexes in T47D cells; type: cell-based, human; details: T47D cells treated with heregulin (HRG), compared to non-treated cells; FIG. 4C
# Description: FIG. 4C illustrates the detection of activated PI3K complexes in T47D cells (human ductal breast epithelial tumor cell line) treated with heregulin (HRG), compared to non-treated cells. In some embodiments, the detection of PI3K complexes will also correlate with the detection of activated (e.g., phosphorylated) PI3K. […]
Compound,levels of phosphorylated pathway proteins after treatment (PI3K pathway),activation of HER2 heterodimers and PI3K [1],detection of PI3K complexes (PI3K complex)
"CS(=O)(=O)CCNCc1ccc(-c2ccc3ncnc(Nc4ccc(OCc5cccc(F)c5)c(Cl)c4)c3c2)o1 [Lapatinib, lapatinib]","Higher levels of phosphorylated PI3K, AKT, ERK",–,–
EGF: pathway activating ligand used to stimulate MCF7 cells,–,activation of HER2 heterodimers and PI3K,–
heregulin [HRG],–,activation of HER2 heterodimers and PI3K,PI3K complexes were detected

# — patent US9664683B2, “Profiling of signal pathway proteins to determine therapeutic efficacy” (Nestec S.A., priority 2011, dated 2017)
